Experimental data taken from paper PMC1887708.

Molecular target: S107-encoded IgG (monoclonal antibody bound by the Fab-binding site of SpA)
Experiment: ELISA

## monomeric domain D′ of SpA (domain or fragment)
  Fab-binding (relative activity in the inhibition immunoassay): 0.01 M
